The supplement of paper PMC9112550, “Optimization of the antimicrobial peptide Bac7 by deep mutational scanning” (BMC Biology, 2022)

Test system: Escherichia coli TOP10
Test: shrunken log2 fold change of peptide-encoding DNA abundance (4.5 h post-induction vs induction); higher = less antimicrobial activity (less host growth inhibition)
Settings: time post-induction: 4.5 h; library: site-saturation at positions 5, 18, 19, 20
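Further: peptides expressed intracellularly from a pBAD plasmid library in pooled LB shake-flask culture, induced with 0.3% L-arabinose, DNA abundance read by NGS, three biological replicates, DESeq2 with apeglm shrinkage.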

Sequence	shrunken log2 fold change
RRIRHRPPRLPRPRPRPCERPRP	-0.0535
RRIRHRPPRLPRPRPRPCGVPRP	-0.00991
RRIRHRPPRLPRPRPRPCHIPRP	-0.454
RRIRHRPPRLPRPRPRPCIAPRP	-0.46
RRIRHRPPRLPRPRPRPCIIPRP	-0.0445
RRIRHRPPRLPRPRPRPCLTPRP	-0.0273
RRIRHRPPRLPRPRPRPCMPPRP	0.0401
RRIRHRPPRLPRPRPRPCMYPRP	-0.0819
RRIRHRPPRLPRPRPRPCPGPRP	-0.541
RRIRHRPPRLPRPRPRPCPSPRP	0.0144
RRIRHRPPRLPRPRPRPCPVPRP	-0.0628
RRIRHRPPRLPRPRPRPCRMPRP	0.0591
RRIRHRPPRLPRPRPRPCSDPRP	-0.101
RRIRHRPPRLPRPRPRPCTHPRP	-0.192
RRIRHRPPRLPRPRPRPCTWPRP	-0.0924
RRIRHRPPRLPRPRPRPCVEPRP	0.197
RRIRHRPPRLPRPRPRPCVNPRP	-0.166
RRIRHRPPRLPRPRPRPCVTPRP	-0.609
RRIRHRPPRLPRPRPRPCYDPRP	-0.00778
RRIRHRPPRLPRPRPRPDAGPRP	-0.0143
RRIRHRPPRLPRPRPRPDAKPRP	-0.0555
RRIRHRPPRLPRPRPRPDCMPRP	-0.291
RRIRHRPPRLPRPRPRPDEIPRP	-0.137
RRIRHRPPRLPRPRPRPDFEPRP	0.18
RRIRHRPPRLPRPRPRPDFYPRP	-0.609

Sequence	shrunken log2 fold change
RRIRHRPPRLPRPRPRPDHIPRP	-0.336
RRIRHRPPRLPRPRPRPDILPRP	-0.0904
RRIRHRPPRLPRPRPRPDINPRP	-0.0579
RRIRHRPPRLPRPRPRPDKGPRP	0.0349
RRIRHRPPRLPRPRPRPDKHPRP	-0.25
RRIRHRPPRLPRPRPRPDKTPRP	0.0185
RRIRHRPPRLPRPRPRPDKWPRP	-0.395
RRIRHRPPRLPRPRPRPDLLPRP	-0.0324
RRIRHRPPRLPRPRPRPDLSPRP	-0.000678
RRIRHRPPRLPRPRPRPDLTPRP	-0.000777
RRIRHRPPRLPRPRPRPDMQPRP	-0.106
RRIRHRPPRLPRPRPRPDNHPRP	-0.323
RRIRHRPPRLPRPRPRPDNNPRP	-0.453
RRIRHRPPRLPRPRPRPDRGPRP	-0.144
RRIRHRPPRLPRPRPRPDSYPRP	-0.0167
RRIRHRPPRLPRPRPRPDVTPRP	-0.0437
RRIRHRPPRLPRPRPRPDWRPRP	0.147
RRIRHRPPRLPRPRPRPEAQPRP	-0.00183
RRIRHRPPRLPRPRPRPECKPRP	-0.0985
RRIRHRPPRLPRPRPRPEDKPRP	-0.0488
RRIRHRPPRLPRPRPRPEFDPRP	0.12
RRIRHRPPRLPRPRPRPEFWPRP	0.42
RRIRHRPPRLPRPRPRPEGMPRP	-0.0777
RRIRHRPPRLPRPRPRPEHFPRP	-0.00153
RRIRHRPPRLPRPRPRPEHGPRP	-0.00141

Sequence	shrunken log2 fold change
RRIRHRPPRLPRPRPRPEISPRP	0.0458
RRIRHRPPRLPRPRPRPEIVPRP	-0.0182
RRIRHRPPRLPRPRPRPEKWPRP	-0.0863
RRIRHRPPRLPRPRPRPEMIPRP	0.0986
RRIRHRPPRLPRPRPRPENDPRP	0.00527
RRIRHRPPRLPRPRPRPENHPRP	-0.235
RRIRHRPPRLPRPRPRPERDPRP	0.155
RRIRHRPPRLPRPRPRPESFPRP	-0.0018
RRIRHRPPRLPRPRPRPESTPRP	0.0536
RRIRHRPPRLPRPRPRPESYPRP	-0.012
RRIRHRPPRLPRPRPRPEVMPRP	-0.0878
RRIRHRPPRLPRPRPRPEWKPRP	-0.00613
RRIRHRPPRLPRPRPRPFCMPRP	-1.09
RRIRHRPPRLPRPRPRPFCQPRP	-0.243
RRIRHRPPRLPRPRPRPFFWPRP	0.093
RRIRHRPPRLPRPRPRPFGDPRP	-0.257
RRIRHRPPRLPRPRPRPFGNPRP	-0.119
RRIRHRPPRLPRPRPRPFHAPRP	-0.0061
RRIRHRPPRLPRPRPRPFHKPRP	-0.0218
RRIRHRPPRLPRPRPRPFISPRP	-0.387
RRIRHRPPRLPRPRPRPFLEPRP	-0.0353
RRIRHRPPRLPRPRPRPFMGPRP	-0.103
RRIRHRPPRLPRPRPRPFMNPRP	-0.0862
RRIRHRPPRLPRPRPRPFNMPRP	-0.0933
RRIRHRPPRLPRPRPRPFPQPRP	3.88

Sequence	shrunken log2 fold change
RRIRHRPPRLPRPRPRPFQEPRP	-0.00966
RRIRHRPPRLPRPRPRPFQSPRP	-0.00192
RRIRHRPPRLPRPRPRPFRTPRP	-0.0018
RRIRHRPPRLPRPRPRPFVVPRP	-0.16
RRIRHRPPRLPRPRPRPFWYPRP	-0.167
RRIRHRPPRLPRPRPRPGAEPRP	0.13
RRIRHRPPRLPRPRPRPGAMPRP	0.392
RRIRHRPPRLPRPRPRPGAQPRP	0.187
RRIRHRPPRLPRPRPRPGARPRP	0.335
RRIRHRPPRLPRPRPRPGCSPRP	-0.08
RRIRHRPPRLPRPRPRPGCVPRP	0.000164
RRIRHRPPRLPRPRPRPGFNPRP	-0.0117
RRIRHRPPRLPRPRPRPGGSPRP	-0.0606
RRIRHRPPRLPRPRPRPGHRPRP	-0.0928
RRIRHRPPRLPRPRPRPGLSPRP	-0.0763
RRIRHRPPRLPRPRPRPGMDPRP	-0.0518
RRIRHRPPRLPRPRPRPGMWPRP	-0.0849
RRIRHRPPRLPRPRPRPGNVPRP	-0.36
RRIRHRPPRLPRPRPRPGPFPRP	-0.225
RRIRHRPPRLPRPRPRPGRSPRP	3.99
RRIRHRPPRLPRPRPRPGSIPRP	-0.209
RRIRHRPPRLPRPRPRPGVKPRP	-0.0148
RRIRHRPPRLPRPRPRPGWFPRP	0.0663
RRIRHRPPRLPRPRPRPGWHPRP	0.208
RRIRHRPPRLPRPRPRPGWIPRP	-0.051

Sequence	shrunken log2 fold change
RRIRHRPPRLPRPRPRPGWNPRP	0.0316
RRIRHRPPRLPRPRPRPGYHPRP	-0.126
RRIRHRPPRLPRPRPRPGYTPRP	-0.302
RRIRHRPPRLPRPRPRPGYYPRP	-0.318
RRIRHRPPRLPRPRPRPHDFPRP	-0.0633
RRIRHRPPRLPRPRPRPHDPPRP	-0.613
RRIRHRPPRLPRPRPRPHDRPRP	-0.218
RRIRHRPPRLPRPRPRPHDYPRP	-0.0577
RRIRHRPPRLPRPRPRPHEKPRP	-0.00373
RRIRHRPPRLPRPRPRPHFYPRP	-0.139
RRIRHRPPRLPRPRPRPHGIPRP	-0.0284
RRIRHRPPRLPRPRPRPHHEPRP	-0.0148
RRIRHRPPRLPRPRPRPHHNPRP	-0.672
RRIRHRPPRLPRPRPRPHIPPRP	-0.514
RRIRHRPPRLPRPRPRPHKHPRP	-0.546
RRIRHRPPRLPRPRPRPHLGPRP	0.0478
RRIRHRPPRLPRPRPRPHLNPRP	-0.00458
RRIRHRPPRLPRPRPRPHLQPRP	-0.129
RRIRHRPPRLPRPRPRPHLSPRP	-0.43
RRIRHRPPRLPRPRPRPHLWPRP	-0.0776
RRIRHRPPRLPRPRPRPHMIPRP	0.13
RRIRHRPPRLPRPRPRPHMLPRP	-0.0874
RRIRHRPPRLPRPRPRPHNCPRP	-0.0289
RRIRHRPPRLPRPRPRPHPQPRP	-0.185
RRIRHRPPRLPRPRPRPHQKPRP	-0.0284

Sequence	shrunken log2 fold change
RRIRHRPPRLPRPRPRPHSPPRP	-0.468
RRIRHRPPRLPRPRPRPHVQPRP	-0.128
RRIRHRPPRLPRPRPRPHWIPRP	-0.415
RRIRHRPPRLPRPRPRPHWWPRP	0.0507
RRIRHRPPRLPRPRPRPHYEPRP	0.0367
RRIRHRPPRLPRPRPRPHYFPRP	0.00508
RRIRHRPPRLPRPRPRPIAIPRP	0.0123
RRIRHRPPRLPRPRPRPIDAPRP	-0.105
RRIRHRPPRLPRPRPRPIEKPRP	-0.00776
RRIRHRPPRLPRPRPRPIEPPRP	-0.133
RRIRHRPPRLPRPRPRPIGTPRP	-0.0693
RRIRHRPPRLPRPRPRPIGYPRP	0.0062
RRIRHRPPRLPRPRPRPIHEPRP	-0.153
RRIRHRPPRLPRPRPRPIHLPRP	-0.541
RRIRHRPPRLPRPRPRPIIAPRP	-0.272
RRIRHRPPRLPRPRPRPIIPPRP	-0.197
RRIRHRPPRLPRPRPRPIIRPRP	-0.507
RRIRHRPPRLPRPRPRPIIVPRP	-0.0935
RRIRHRPPRLPRPRPRPINEPRP	-0.99
RRIRHRPPRLPRPRPRPIPNPRP	0.101
RRIRHRPPRLPRPRPRPIPPPRP	-0.0356
RRIRHRPPRLPRPRPRPIPWPRP	0.0217
RRIRHRPPRLPRPRPRPIRHPRP	-0.0447
RRIRHRPPRLPRPRPRPIRKPRP	-0.583
RRIRHRPPRLPRPRPRPIRNPRP	-0.387
